Assay results: patent publication US20040058357

Target: PKCβII (mouse brain homogenates), P68404
Sequence (P68404 other isoform, or with tags, fused parts or gaps): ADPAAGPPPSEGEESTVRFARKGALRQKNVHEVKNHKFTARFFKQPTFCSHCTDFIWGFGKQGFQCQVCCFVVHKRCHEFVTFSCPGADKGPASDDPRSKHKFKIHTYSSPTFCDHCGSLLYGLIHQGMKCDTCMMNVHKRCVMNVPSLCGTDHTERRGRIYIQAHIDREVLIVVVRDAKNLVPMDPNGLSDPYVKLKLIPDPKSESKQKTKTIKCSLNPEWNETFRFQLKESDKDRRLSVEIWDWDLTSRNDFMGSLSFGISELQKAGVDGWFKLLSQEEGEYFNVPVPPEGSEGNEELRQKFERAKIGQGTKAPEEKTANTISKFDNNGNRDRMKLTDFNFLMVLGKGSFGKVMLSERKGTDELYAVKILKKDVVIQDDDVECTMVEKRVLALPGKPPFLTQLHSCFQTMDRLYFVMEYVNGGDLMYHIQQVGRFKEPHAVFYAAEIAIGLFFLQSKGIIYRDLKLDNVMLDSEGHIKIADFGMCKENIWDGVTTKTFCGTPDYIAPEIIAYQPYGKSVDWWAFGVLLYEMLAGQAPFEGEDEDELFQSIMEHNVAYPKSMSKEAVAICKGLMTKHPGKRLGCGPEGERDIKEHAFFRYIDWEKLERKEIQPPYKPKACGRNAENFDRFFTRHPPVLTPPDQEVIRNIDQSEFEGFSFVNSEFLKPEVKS

B1: AChE-R overexpressed in AChE-R transgenic mice (protein)
chain: EGREDAELLVTVRGGRLRGIRLKTPGGPVSAFLGIPFAEPPMGPRRFLPPEPKQPWSGVVDATTFQSVCYQYVDTLYPGFEGTEMWNPNRELSEDCLYLNVWTPYPRPTSPTPVLVWIYGGGFYSGASSLDVYDGRFLVQAERTVLVSMNYRVGAFGFLALPGSREAPGNVGLLDQRLALQWVQENVAAFGGDPTSVTLFGESAGAASVGMHLLSPPSRGLFHRAVLQSGAPNGPWATVGMGEARRRATQLAHLVGCPPGGTGGNDTELVACLRTRPAQVLVNHEWHVLPQESVFRFSFVPVVDGDFLSDTPEALINAGDFHGLQVLVGVVKDEGSYFLVYGAPGFSKDNESLISRAEFLAGVRVGVPQVSDLAAEAVVLHYTDWLHPEDPARLREALSDVVGDHNVVCPVAQLAGRLAAQGARVYAYVFEHRASTLSWPLWMGVPHGYEIEFIFGIPLDPSRNYTAEEKIFAQRLMRYWANFARTGDPNEPRDPKAPQWPPYTAGAQQYVSLDLRPLEVRRGLRAQACAFWNRFLPKLLSATGMQGPAGSAGRRGVGARQCNPSLLPLASE
**Q.** Which “PKC activity in brain homogenates (PKC assay kit, Upstate Biotechnology)” value does the source give for B1 here?
**A.** Note the elevation of PKC activity in the different brain regions in the AChE-R transgenics as compered to FVB/N controls
